Results published in publication PMC6555819, “Comprehensive study of nuclear receptor DNA binding provides a revised framework for understanding receptor specificity”.

How the values were obtained:
[1] = target: THRa:RXRa (Homo sapiens, UniProt P10827;P19793 full;full); experiment: no ligand; PBM; 90 nM : 90 nM RXRa; PBS pH 7.4, 2% milk, 0.02% Triton X-100, 1 mM DTT, BSA, 0.4 mg/ml salmon testes DNA; conditions: tags: His kept;His cleaved; copies: 1;1; label: surface-attached array probe
[2] = target: LXRb:RXRa (Homo sapiens, UniProt P55055;P19793 full;full); experiment: no ligand; PBM; 270 nM : 90 nM RXRa; PBS pH 7.4, 2% milk, 0.02% Triton X-100, 1 mM DTT, BSA, 0.4 mg/ml salmon testes DNA; conditions: tags: His kept;His cleaved; copies: 1;1; label: surface-attached array probe
Outline: (§1)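 Probes were double-stranded and carried 34-nt variable regions with direct-repeat seeds, single-nucleotide variants, half-site ablations and random human genomic background sequences, printed on custom Agilent 4×180K protein-binding microarrays. Arrays were incubated 1 h with ligand-free nuclear receptor dimers in PBS pH 7.4, 2% milk, 0.02% Triton X-100, 1 mM DTT, 0.2 mg/mL BSA and 0.4 mg/ml salmon testes DNA. Antibodies against each partner (one per run) detected binding, and scanned fluorescence was regression-normalized. Binding z-scores use the random background probes as reference.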

[3] = target: FXR:RXRa (Homo sapiens, UniProt Q96RI1;P19793 full;full); experiment: as above; conditions: tags: His kept;His cleaved; copies: 1;1; label: surface-attached array probe
Outline: as §1

[4] = target: RARa:RXRa (Homo sapiens, UniProt P10276;P19793 full;full); experiment: as above; conditions: tags: His kept;His cleaved; copies: 1;1; label: surface-attached array probe
Outline: as §1

[5] = target: VDR:RXRa (Homo sapiens, UniProt P11473;P19793 full;full); experiment: as above; conditions: tags: His kept;His cleaved; copies: 1;1; label: surface-attached array probe
Outline: as §1

[6] = target: RARg:RXRa (Homo sapiens, UniProt P13631;P19793 full;full); experiment: as above; conditions: tags: His kept;His cleaved; copies: 1;1; label: surface-attached array probe
Outline: as §1

[7] = target: RARb:RXRa (Homo sapiens, UniProt P10826;P19793 full;full); experiment: as above; conditions: tags: His kept;His cleaved; copies: 1;1; label: surface-attached array probe
Outline: as §1

[8] = target: PXR:RXRa (Homo sapiens, UniProt O75469;P19793 full;full); experiment: as above; conditions: tags: His kept;His cleaved; copies: 1;1; label: surface-attached array probe
Outline: as §1

[9] = target: LXRa:RXRa (Homo sapiens, UniProt Q13133;P19793 full;full); experiment: as above; conditions: tags: His kept;His cleaved; copies: 1;1; label: surface-attached array probe
Outline: as §1

[10] = target: RXRa (Homo sapiens, UniProt P19793); experiment: no ligand; PBM; 180 nM; PBS pH 7.4, 2% milk, 0.02% Triton X-100, 1 mM DTT, BSA, 0.4 mg/ml salmon testes DNA; conditions: tags: His cleaved; chain copies: 2; label: surface-attached array probe

Chain of FXR:RXRa (Q96RI1 whole entry, chain 1 of 2): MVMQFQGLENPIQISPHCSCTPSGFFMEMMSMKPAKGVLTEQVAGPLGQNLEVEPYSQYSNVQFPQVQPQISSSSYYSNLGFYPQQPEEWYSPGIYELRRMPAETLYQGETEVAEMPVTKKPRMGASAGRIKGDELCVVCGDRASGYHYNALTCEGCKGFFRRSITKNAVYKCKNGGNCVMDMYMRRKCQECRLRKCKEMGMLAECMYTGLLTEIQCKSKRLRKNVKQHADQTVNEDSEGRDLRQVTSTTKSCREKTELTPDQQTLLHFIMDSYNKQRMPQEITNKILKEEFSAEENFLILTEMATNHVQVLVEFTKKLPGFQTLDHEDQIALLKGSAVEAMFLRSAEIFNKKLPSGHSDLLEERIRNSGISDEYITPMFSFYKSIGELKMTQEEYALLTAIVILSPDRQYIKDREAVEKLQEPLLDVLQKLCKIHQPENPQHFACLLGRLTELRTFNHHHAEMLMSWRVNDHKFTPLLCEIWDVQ
Chain of FXR:RXRa (P19793 whole entry, chain 2 of 2): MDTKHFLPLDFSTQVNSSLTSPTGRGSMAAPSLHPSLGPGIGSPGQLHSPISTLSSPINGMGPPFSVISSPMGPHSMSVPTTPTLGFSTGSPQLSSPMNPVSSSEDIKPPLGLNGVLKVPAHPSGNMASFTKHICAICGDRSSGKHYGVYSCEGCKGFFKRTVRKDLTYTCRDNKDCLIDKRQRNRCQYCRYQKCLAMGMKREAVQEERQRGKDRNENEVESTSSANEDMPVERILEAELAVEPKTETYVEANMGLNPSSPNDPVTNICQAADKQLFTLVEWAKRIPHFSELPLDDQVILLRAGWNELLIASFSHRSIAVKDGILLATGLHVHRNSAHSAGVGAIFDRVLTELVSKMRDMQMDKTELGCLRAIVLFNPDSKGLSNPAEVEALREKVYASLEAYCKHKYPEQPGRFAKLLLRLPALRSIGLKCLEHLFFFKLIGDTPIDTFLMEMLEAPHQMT
Chain of RARa:RXRa (P10276 whole entry, chain 1 of 2): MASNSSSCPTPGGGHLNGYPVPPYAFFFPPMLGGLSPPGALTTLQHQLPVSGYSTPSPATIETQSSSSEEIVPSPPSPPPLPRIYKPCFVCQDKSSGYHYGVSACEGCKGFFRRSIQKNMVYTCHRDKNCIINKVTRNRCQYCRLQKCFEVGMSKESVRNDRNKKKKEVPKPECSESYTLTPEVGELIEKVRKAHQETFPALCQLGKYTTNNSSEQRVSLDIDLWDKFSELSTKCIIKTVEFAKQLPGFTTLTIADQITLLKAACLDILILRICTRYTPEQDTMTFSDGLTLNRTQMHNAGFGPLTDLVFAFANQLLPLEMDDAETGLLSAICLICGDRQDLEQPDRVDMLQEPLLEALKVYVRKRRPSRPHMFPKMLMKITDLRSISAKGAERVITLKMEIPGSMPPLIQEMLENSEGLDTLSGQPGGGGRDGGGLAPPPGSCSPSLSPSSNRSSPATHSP
Chain of RARa:RXRa (P19793 whole entry, chain 2 of 2): as the sequence (P19793 whole entry, chain 2 of 2) above
Chain of PXR:RXRa (O75469 whole entry, chain 1 of 2): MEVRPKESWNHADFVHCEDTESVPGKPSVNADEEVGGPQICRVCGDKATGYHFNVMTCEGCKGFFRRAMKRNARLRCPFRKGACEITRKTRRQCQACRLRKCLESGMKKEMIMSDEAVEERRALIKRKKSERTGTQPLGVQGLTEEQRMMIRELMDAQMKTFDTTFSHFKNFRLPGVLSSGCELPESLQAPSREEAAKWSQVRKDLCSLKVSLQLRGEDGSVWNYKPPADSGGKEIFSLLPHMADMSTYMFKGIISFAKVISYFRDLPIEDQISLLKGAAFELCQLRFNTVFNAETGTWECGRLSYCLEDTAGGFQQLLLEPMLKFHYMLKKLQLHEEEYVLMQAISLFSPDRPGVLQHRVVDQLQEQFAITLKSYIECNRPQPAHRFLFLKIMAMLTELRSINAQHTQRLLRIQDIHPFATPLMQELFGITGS
Chain of PXR:RXRa (P19793 whole entry, chain 2 of 2): as the sequence (P19793 whole entry, chain 2 of 2) above
Chain of THRa:RXRa (P10827 other isoform, or with tags, fused parts or gaps, chain 1 of 2): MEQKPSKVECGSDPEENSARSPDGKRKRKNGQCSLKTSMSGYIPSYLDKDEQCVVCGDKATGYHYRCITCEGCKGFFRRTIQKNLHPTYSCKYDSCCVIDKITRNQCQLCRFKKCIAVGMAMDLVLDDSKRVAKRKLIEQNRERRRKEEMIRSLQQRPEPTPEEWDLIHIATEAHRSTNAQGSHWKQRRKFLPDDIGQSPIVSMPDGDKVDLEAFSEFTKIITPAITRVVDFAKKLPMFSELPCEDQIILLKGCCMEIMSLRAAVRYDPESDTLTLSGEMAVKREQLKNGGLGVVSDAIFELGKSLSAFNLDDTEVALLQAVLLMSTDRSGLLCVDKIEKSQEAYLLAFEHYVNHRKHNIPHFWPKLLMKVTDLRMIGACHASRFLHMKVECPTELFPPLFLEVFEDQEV
Chain of THRa:RXRa (P19793 whole entry, chain 2 of 2): as the sequence (P19793 whole entry, chain 2 of 2) above
Chain of LXRb:RXRa (P55055 whole entry, chain 1 of 2): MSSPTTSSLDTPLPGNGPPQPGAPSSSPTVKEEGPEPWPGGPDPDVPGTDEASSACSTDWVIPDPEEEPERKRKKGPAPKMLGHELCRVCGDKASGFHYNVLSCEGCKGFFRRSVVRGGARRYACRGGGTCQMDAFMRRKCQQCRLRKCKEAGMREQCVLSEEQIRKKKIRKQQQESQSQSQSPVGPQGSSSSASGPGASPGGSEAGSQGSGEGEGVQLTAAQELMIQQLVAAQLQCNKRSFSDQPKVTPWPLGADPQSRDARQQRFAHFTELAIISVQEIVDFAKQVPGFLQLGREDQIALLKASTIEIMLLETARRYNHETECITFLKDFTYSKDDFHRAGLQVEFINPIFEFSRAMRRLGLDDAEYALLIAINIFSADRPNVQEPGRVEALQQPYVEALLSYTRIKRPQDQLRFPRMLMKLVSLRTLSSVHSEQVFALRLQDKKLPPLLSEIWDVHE
Chain of LXRb:RXRa (P19793 whole entry, chain 2 of 2): as the sequence (P19793 whole entry, chain 2 of 2) above

B1: NRC3_wobSeed73_DR3_T8C_o1 (dsDNA)
DNA 1: GCCAAACCAGGTCACAGAGGTCAAAGTCCGTGCGTAGCGATTGACAGCGTAGAATGAAGG
DNA 2: CCTTCATTCTACGCTGTCAATCGCTACGCACGGACTTTGACCTCTGTGACCTGGTTTGGC
B1 was tested, and the binding signal [1] was 5.06 PBM z-score against 500 random probes, the binding signal [2] was 6.76 PBM z-score against 500 random probes and the binding signal [3] was 8 PBM z-score against 500 random probes. The binding signal [4] was 8.19 PBM z-score against 500 random probes and the binding signal [5] was 8.47 PBM z-score against 500 random probes.

B2: NRC3_wobSeed85_DR3_A16T_o1 (dsDNA)
DNA 1: GCCGTCCAAGGTCAGTGAGGTCAGTGAATGCCGAGTGCGATTGACAGCGTAGAATGAAGG
DNA 2: CCTTCATTCTACGCTGTCAATCGCACTCGGCATTCACTGACCTCACTGACCTTGGACGGC
For B2, the binding signal [1] was 4.89 PBM z-score against 500 random probes and the binding signal [4] was 4.46 PBM z-score against 500 random probes.

B3: NRC3_random_hg19_192_o1 (dsDNA)
DNA 1: GCGCAGGAAGCCCTCCTCCAGCTTACAGTGGAACTCGCGATTGACAGCGTAGAATGAAGG
DNA 2: CCTTCATTCTACGCTGTCAATCGCGAGTTCCACTGTAAGCTGGAGGAGGGCTTCCTGCGC
For B3, the binding signal [1] was -0.77 PBM z-score against 500 random probes, the binding signal [2] was -1.14 PBM z-score against 500 random probes and the binding signal [4] was -1.09 PBM z-score against 500 random probes.

B4: NRC3_wobSeed111_DR4_T8G_o1 (dsDNA)
DNA 1: GCCGAACGAGGTCAGAACAGGACAGTGAAGGATGATGCGATTGACAGCGTAGAATGAAGG
DNA 2: CCTTCATTCTACGCTGTCAATCGCATCATCCTTCACTGTCCTGTTCTGACCTCGTTCGGC
In the case of B4, the binding signal [1] is reported as 4.78 PBM z-score against 500 random probes and the binding signal [4] is reported as 3.37 PBM z-score against 500 random probes.

B5: NRC3_wobSeed117_DR4_A23C_o1 (dsDNA)
DNA 1: GCCGTCAAAGTTCAACTAAGGTCACGTAAAGCACGCGCGATTGACAGCGTAGAATGAAGG
DNA 2: CCTTCATTCTACGCTGTCAATCGCGCGTGCTTTACGTGACCTTAGTTGAACTTTGACGGC
With B5 the binding signal [1] was 5.72 PBM z-score against 500 random probes, the binding signal [6] was 7.95 PBM z-score against 500 random probes and the binding signal [2] was 7.09 PBM z-score against 500 random probes. The binding signal [3] was 7.83 PBM z-score against 500 random probes, the binding signal [7] was 6.07 PBM z-score against 500 random probes and the binding signal [4] was 7.16 PBM z-score against 500 random probes. For the same binder, the binding signal [5] was 7.49 PBM z-score against 500 random probes, the binding signal [8] was 7.87 PBM z-score against 500 random probes and the binding signal [9] was 8.08 PBM z-score against 500 random probes.

B6: NRC3_random_hg19_266_o1 (dsDNA)
DNA 1: GCAATGACAAGGAAGTGTGGAGGCAGAAAGTGCCAAGCGATTGACAGCGTAGAATGAAGG
DNA 2: CCTTCATTCTACGCTGTCAATCGCTTGGCACTTTCTGCCTCCACACTTCCTTGTCATTGC
With B6 the binding signal [1] was -0.07 PBM z-score against 500 random probes, the binding signal [2] was -0.28 PBM z-score against 500 random probes and the binding signal [4] was -0.53 PBM z-score against 500 random probes.

B7: NRC3_wobSeed25_DR1_T8A_o1 (dsDNA)
DNA 1: GCCAAACAAGGTCAAAGGTCAAAGTCGAGCCAACCAGCGATTGACAGCGTAGAATGAAGG
DNA 2: CCTTCATTCTACGCTGTCAATCGCTGGTTGGCTCGACTTTGACCTTTGACCTTGTTTGGC
With B7 the binding signal [1] was 5.07 PBM z-score against 500 random probes, the binding signal [6] was 9.65 PBM z-score against 500 random probes and the binding signal [2] was 8.13 PBM z-score against 500 random probes. For the same binder, the binding signal [3] was 9.54 PBM z-score against 500 random probes, the binding signal [7] was 6.19 PBM z-score against 500 random probes and the binding signal [4] was 9.67 PBM z-score against 500 random probes. The binding signal [5] was 7.62 PBM z-score against 500 random probes, the binding signal [8] was 7.73 PBM z-score against 500 random probes and the binding signal [9] was 8.24 PBM z-score against 500 random probes. The binding signal [10] was 11.2 PBM z-score against 500 random probes.

B8: NRC3_random_hg19_257_o1 (dsDNA)
DNA 1: GCACACTGACAATAGCATACACCTTTCCAGAATGCGGCGATTGACAGCGTAGAATGAAGG
DNA 2: CCTTCATTCTACGCTGTCAATCGCCGCATTCTGGAAAGGTGTATGCTATTGTCAGTGTGC
In the case of B8, the binding signal [1] is reported as 0.05 PBM z-score against 500 random probes, the binding signal [4] is reported as 0.41 PBM z-score against 500 random probes and the binding signal [8] is reported as 0.17 PBM z-score against 500 random probes.
